Test results: the supplement of paper PMC9732359
± gives the uncertainty stated by the source.

Test: protein stability index of a GFP-peptide fusion (yeast GPS) (PSI 1-4); higher = more stable; sorted into four equal gates, so the index is relative within each strain
In short: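 Sequencing reads from sorted gates were used to score each peptide. The library consisted of tiled 17-residue yeast protein peptides fused downstream of GFP on a Cherry-expressing plasmid, pooled and carried in yeast. Mid-log cultures in leucine-free medium were split into four equal gates by GFP/Cherry ratio, and each gate's plasmids were PCR-amplified and Illumina-sequenced. The protein stability index adds up, over all gates, the read frequency multiplied by the gate number.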

Sequence | protein stability index (doa10∆) | protein stability index (pdr5∆) | protein stability index (san1∆) | protein stability index (ubr1∆)
SHFDYNTLEFIIEQLSI [YCG1] | 2.48 ± 0.078 | 2.62 ± 0.12 | 2.18 ± 0.14 | 2.37 ± 0.086
NAAVAGVANTDTAGEES [SWI3] | 3.06 ± 0.061 | 3.27 ± 0.062 | 3 ± 0.046 | 3.15 ± 0.056
IDKLSDVVMKATEPQMV [PRP8] | 2.38 ± 0.063 | 2.71 ± 0.064 | 2.42 ± 0.065 | 2.28 ± 0.055
VEITFGKEFGDVSVKMG [RRP45] | 1.38 ± 0.073 | 1.68 ± 0.083 | 1.32 ± 0.19 | 1.79 ± 0.12
MSREGFQIPTNLDAAAA [RPC10] | 1.28 ± 0.1 | 1.08 ± 0.082 | 1.35 ± 0.16 | 1.16 ± 0.2
YQTKKFYDYIKERSIVV [REC8] | 2.49 ± 0.058 | 2.81 ± 0.054 | 2.14 ± 0.058 | 2.72 ± 0.047
LLNLPPFQVSSFVKETK [SRB8] | 1.94 ± 0.039 | 1.88 ± 0.035 | 2.04 ± 0.05 | 2.02 ± 0.04
LFPEQQNKEIKAERVED [RPL6A] | 3.61 ± 0.11 | 3.14 ± 0.1 | 3.59 ± 0.065 | 3.35 ± 0.056
THAQRTGLSQIPNRRFT [PRP8] | 2.8 ± 0.048 | 2.62 ± 0.047 | 2.83 ± 0.048 | 2.88 ± 0.043
LIRFDESITKAMEFIFG [SMC2] | 2.45 ± 0.082 | 2.52 ± 0.17 | 2.35 ± 0.16 | –
KNLSLLAEEVVDNIVNK [SRP68] | 3.15 ± 0.092 | 2.9 ± 0.13 | 3.16 ± 0.066 | 3.01 ± 0.089
PEIDNLDDLVVLKKKNI [RRP6] | 2.37 ± 0.067 | 2.15 ± 0.052 | 2.59 ± 0.089 | 2.79 ± 0.066
STLYKYLKESKRKYDEI [SWI3] | 3.51 ± 0.12 | 3.42 ± 0.24 | 3.21 ± 0.17 | 2.84 ± 0.15
LFGENDTSTQAYEEEEE [NUT1] | 3.34 ± 0.09 | 3.41 ± 0.095 | 3.5 ± 0.057 | 3.34 ± 0.075
ILGDLGKEFGTTPEKPE [FAS2] | 2.83 ± 0.087 | 2.69 ± 0.072 | 2.51 ± 0.057 | 2.78 ± 0.066
VDQEMLYEIILAANYLN [SKP1] | 1.63 ± 0.051 | 1.72 ± 0.05 | 1.92 ± 0.093 | 1.84 ± 0.057
HGTYFLDNMTYSSVAGT [RRP4] | 2.21 ± 0.051 | 2.3 ± 0.043 | 2.45 ± 0.062 | 1.72 ± 0.034
ELEKYNELERNRKIYQF [SMC3] | 2.34 ± 0.099 | 2.35 ± 0.13 | 2.38 ± 0.14 | 2.67 ± 0.078
RNVLSASLDGTIRLWEC [RPN14] | 2.95 ± 0.068 | 3.09 ± 0.073 | 3.14 ± 0.042 | 2.82 ± 0.043
DSENFSFEKLYEGMKLG [YMR129W/POM152] | 3.5 ± 0.11 | 3.48 ± 0.15 | 3.42 ± 0.098 | 3.29 ± 0.074
LISGAGANPRVLSTFTA [RPN10] | 2.16 ± 0.11 | 2.04 ± 0.1 | 2.02 ± 0.2 | 2.17 ± 0.072
DSSMTTVQENELLKSSL [AAR2] | 2.79 ± 0.12 | 3.32 ± 0.1 | 3.12 ± 0.095 | 2.94 ± 0.13
IADQDMEDEDMVDVIID [ESC2] | 3.41 ± 0.16 | 3.3 ± 0.079 | 3.15 ± 0.088 | 3.15 ± 0.11
FVEVERARVTKDLVEIK [RPN5] | 3.37 ± 0.11 | 3.44 ± 0.093 | 3.33 ± 0.066 | 3.56 ± 0.058
ERGFACIPLVGISVPFH [FAS1] | 1.34 ± 0.06 | 1.32 ± 0.07 | 1.22 ± 0.12 | 1.21 ± 0.061
SNGLLSIVLLLLSQFGI [YML103C/NUP188] | 1.51 ± 0.12 | 1.53 ± 0.083 | 1.41 ± 0.18 | 2.19 ± 0.079
